Consider seven molecules from US20230035798A1 (CAPELLA BIOSCIENCE, published 2023).

Test in all cases: flow cytometry, transfected HEK293FF, mAb at EC50
For orientation: A flow cytometer gives signals particle by particle.

The target in one assay is T1, membrane LIGHT V196A (human, UniProt O43557 1-240).
T1 chain: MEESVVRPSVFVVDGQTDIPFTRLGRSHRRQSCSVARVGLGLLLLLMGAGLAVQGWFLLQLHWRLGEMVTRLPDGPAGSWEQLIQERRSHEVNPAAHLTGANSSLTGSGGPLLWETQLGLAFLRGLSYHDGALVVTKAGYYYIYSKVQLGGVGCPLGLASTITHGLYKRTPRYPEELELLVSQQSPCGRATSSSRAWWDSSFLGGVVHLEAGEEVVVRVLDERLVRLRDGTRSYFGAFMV
As to the method:
(§1) The day of transfection the cells were seeded in a 24-well plate at 0.6×10⁶ cells/well. Lipofectamine 2000 (ThermoFisher scientific), 3 μl, was mixed with 50 μl OptiMEM medium (GIBCO) and then added to 50 μl Opti-MEM medium containing 3 ug plasmid DNA and incubated for 20 min at RT to form DNA-Lipofectamine 2000 complexes which were then added to the HEK293FF cells and incubated at 37° C., 5% CO₂ for 24 hours. For each construct, in duplicate, 0.60×10⁶ cells/well were used in a 96 well round bottom plate. Cells were centrifuged for 3 minutes at 300×g at 4° C., the supernatant discarded and the cells washed with 150 μl FACS buffer (0.5% FBS in phosphate buffered saline). This process was repeated 3 times. […] The wells were washed 3 times as above and 50 μl/well of goat anti-human IgG FITC (1:1500 dilution in FACS buffer, SIGMA F9512-2ML) or goat anti-mouse APC (1/500 dilution in FACS buffer, BDBioscience 550826), as appropriate, was added to the wells and incubated for 30 min at 4° C. protected from the light, with shaking. The cells were then washed as above, resuspended in 100 μl of FACS buffer and binding of the antibodies to the constructs was measured using flow cytometry and a total of 10,000 cells were acquired for each sample. Controls of buffer and secondary antibody only as well as HEK293FF non transfected cells were also used.

Assay [1] addresses T2, human LIGHT (TNFSF14), full length, membrane-bound (214E allele) (human, UniProt O43557 1-240).
T2 construct: also called membrane LIGHT; human membrane LIGHT
As to the method:
as §1

A further assay has as its target T3, membrane LIGHT R195A (human, UniProt O43557 1-240).
T3 chain: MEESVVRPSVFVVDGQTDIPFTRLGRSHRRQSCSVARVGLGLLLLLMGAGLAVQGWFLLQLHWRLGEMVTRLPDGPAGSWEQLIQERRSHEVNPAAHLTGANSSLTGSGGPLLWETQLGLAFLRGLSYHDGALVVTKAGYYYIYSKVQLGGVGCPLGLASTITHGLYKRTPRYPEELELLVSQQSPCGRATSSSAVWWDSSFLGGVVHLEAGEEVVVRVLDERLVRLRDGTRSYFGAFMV
As to the method: as §1

A further assay addresses T4, membrane LIGHT R189A (human, UniProt O43557 1-240).
T4 chain: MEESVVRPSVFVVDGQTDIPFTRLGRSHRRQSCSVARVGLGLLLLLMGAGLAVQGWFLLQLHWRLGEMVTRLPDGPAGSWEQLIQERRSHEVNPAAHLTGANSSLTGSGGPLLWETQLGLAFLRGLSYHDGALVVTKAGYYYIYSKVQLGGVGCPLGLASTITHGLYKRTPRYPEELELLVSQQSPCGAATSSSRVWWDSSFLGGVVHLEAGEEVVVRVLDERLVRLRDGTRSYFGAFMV
As to the method:
as §1

A further assay addresses T5, membrane LIGHT A190S (human, UniProt O43557 1-240).
T5 chain: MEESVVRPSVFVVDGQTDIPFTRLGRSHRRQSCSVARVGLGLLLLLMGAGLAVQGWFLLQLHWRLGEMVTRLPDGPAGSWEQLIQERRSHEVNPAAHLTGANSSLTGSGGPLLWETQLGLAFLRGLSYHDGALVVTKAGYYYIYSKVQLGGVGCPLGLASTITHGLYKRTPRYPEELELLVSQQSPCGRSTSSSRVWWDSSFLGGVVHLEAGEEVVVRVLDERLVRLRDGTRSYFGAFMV
As to the method:
as §1

The target in a further assay is T6, membrane LIGHT T191A (human, UniProt O43557 1-240).
T6 chain: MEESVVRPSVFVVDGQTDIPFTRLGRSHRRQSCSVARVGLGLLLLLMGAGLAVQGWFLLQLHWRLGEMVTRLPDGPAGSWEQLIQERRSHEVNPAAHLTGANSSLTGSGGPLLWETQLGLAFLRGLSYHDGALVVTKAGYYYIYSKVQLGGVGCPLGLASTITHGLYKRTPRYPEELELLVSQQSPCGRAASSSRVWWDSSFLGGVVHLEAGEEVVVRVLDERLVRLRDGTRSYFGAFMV
As to the method:
as §1

The next assay has as its target T7, membrane LIGHT W197A (human, UniProt O43557 1-240).
T7 chain: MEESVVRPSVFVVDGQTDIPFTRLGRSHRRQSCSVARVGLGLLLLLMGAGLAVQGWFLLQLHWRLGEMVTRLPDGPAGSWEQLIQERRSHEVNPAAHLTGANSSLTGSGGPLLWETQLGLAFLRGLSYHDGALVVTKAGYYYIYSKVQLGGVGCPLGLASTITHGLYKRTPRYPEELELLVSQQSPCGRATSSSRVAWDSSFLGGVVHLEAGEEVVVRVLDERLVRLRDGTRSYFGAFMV
As to the method:
as §1

Another assay addresses T8, membrane LIGHT W198A (human, UniProt O43557 1-240).
T8 chain: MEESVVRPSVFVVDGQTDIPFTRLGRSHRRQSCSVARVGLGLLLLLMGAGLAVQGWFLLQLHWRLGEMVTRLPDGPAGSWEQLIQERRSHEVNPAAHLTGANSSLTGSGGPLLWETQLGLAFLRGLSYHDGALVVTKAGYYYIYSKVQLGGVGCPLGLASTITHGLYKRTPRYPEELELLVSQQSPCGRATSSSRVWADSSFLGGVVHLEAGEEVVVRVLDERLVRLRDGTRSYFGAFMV
As to the method: as §1

B1: 3A07 (antibody, human IgG4, V domains shown)
VH: QVQLQQSGAELVRPGAPVTLSCKASDYTFTDSEIHWVKQTPVHGLEWIGEIDPETGGTAYNQKFKGKATLTADKSSSTAYMELRSLTSEDSAVYYCSRETDYFFDYWGQGTTLTVSS
VL: ENVLTQSPAIMSASPGEKVTMTCSASSSVSYMYWYQQRPGSSPRLLIYDTSNLASGVPVRFSGSGSGTSYSLTISRMEAEDAATYYCQQWSSYPLTFGSGTKLEIK
notes: chimeric human IgG4 (S-to-P, L-to-E at 248), human CL; also called Parental 3A07
B1: the “binding, % of WT” value with membrane LIGHT V196A amounted to 77%; in assay [1], 100%; with membrane LIGHT R195A, 15%; with membrane LIGHT R189A, 0%; with membrane LIGHT A190S, 47%; with membrane LIGHT T191A, 4%. Further, the “binding, % of WT” value in the assay with membrane LIGHT W197A stood at 1%; in the assay with membrane LIGHT W198A, 82%.

B2: 3B04 (antibody, human IgG4, V domains shown)
VH: QVQLQQPGAELVRPGASVTLSCKASGYTFTDYEMHWVKQTPVHGLEWIGEIDPETGDTAYSQKFKGKATLTADKSSSTAYMEFRSLTSEDSAVYYCSRETDYFFDYWGQGTTLTVSS
VL: DIQMTQTPASLSASVGETVTITCGASENIYGALNWYQRKQGKSPQLLIYGATNLADGMSSRFSGSGSGRQYSLKISSLHPDDFATYYCQNVLTTPWTFGGGTKLEIKR
notes: chimeric: mouse variable domains on human IgG4 HC (S-to-P and L-to-E at 248) and human CL; also called Parental 3B04; 3B04 chimeric
For the molecule B2, the “binding, % of WT” value was 80% in the assay with membrane LIGHT V196A; 100% in assay [1]; 1% with membrane LIGHT R195A; 0% with membrane LIGHT R189A; 68% in the assay with membrane LIGHT A190S; 2% with membrane LIGHT T191A. Moreover, the “binding, % of WT” value in the assay with membrane LIGHT W197A came to 0%; in the assay with membrane LIGHT W198A, 81%.

B3: 3C10 (antibody, human IgG4, V domains shown)
VH: EVQLQQSGAELVRPGASVTLSCKASDYTFTDSEIHWVKQTPVHGLEWIGEIDPETGGTAYNQKFKGKATLTADKSSSTAYMELRSLTSEDSAVYYCSRETDYFFDYWGQGTTLTVSS
VL: DVVMTQTPAIMSASPGEKVTMTCSASSSVSYMYWYQQKPGSSPRLLIYDTSNLASGVPVRFSGSGSGTSYSLTISRMEAEDAATYYCQQWSSYPLTFGAGTKLELK
notes: chimeric human IgG4 (S-to-P, L-to-E at 248), human CL; also called Parental 3C10
For the molecule B3, the “binding, % of WT” value is 78% in the assay with membrane LIGHT V196A; 100% in assay [1]; 6% with membrane LIGHT R195A; 0% with membrane LIGHT R189A; 40% in the assay with membrane LIGHT A190S; 3% with membrane LIGHT T191A. Besides, the “binding, % of WT” value with membrane LIGHT W197A amounted to 0%; with membrane LIGHT W198A it was 86%.

B4: 3D12 (antibody, human IgG4, V domains shown)
VH: QVQLQQPGAELVRPGASVTLSCKASDYTFTDSEIHWVKQTPVHGLEWIGEIDPETGGTAYNQKFKGKATLTADKSSSTAYMELRSLTSEDSAVYYCSRETDYFFDYWGQGTTLTVSS
VL: DIQMTQSPASLSASVGETVTITCGASENIYGALNWYQRKQGKSPQLLIYGATNLADGMSSRFSGSGSGRQYSLKISSLHPDDVATYYCQNVLSTPWTFGGGTKLEIKR
notes: chimeric: mouse variable domains on human IgG4 HC (S-to-P and L-to-E at 248) and human CL; also called Parental 3D12; 3D12 chimeric
Turning to B4, the “binding, % of WT” value with membrane LIGHT V196A came out at 70%; in assay [1], 100%; with membrane LIGHT R195A, 25%; in the assay with membrane LIGHT R189A, 1%; in the assay with membrane LIGHT A190S it was 82%; in the assay with membrane LIGHT T191A, 8%. The “binding, % of WT” value in the assay with membrane LIGHT W197A is 1%; with membrane LIGHT W198A it was 83%.

B5: 3E09 (antibody, V domains shown)
VH: EVQLVESGGGLVKPGGSLKLSCEASGFTFSDYYMYWVRQTPEKRLEWVAAIGDGGIYTYYADTVKGRFTISRDNAKNILYLQMSSLKSNDTAMYYCARGTGDGFAYWGQGTLVTVS
VL: DIVLTQSPASLAVSLGQRATISCRASESVDSYGNSFMHWYQQKPGQPPKLLIYLASNLESGVPARFSGSGSRTDFTLTIDPVEADDAATYYCQQNNEDPYTFGGGTKLEIK
notes: chimeric human IgG4 (S-to-P, L-to-E at 248), human CL; also called Parental 3E09
B5: the “binding, % of WT” value with membrane LIGHT V196A turned out to be 34%; in assay [1], 100%; with membrane LIGHT R195A, 1%; with membrane LIGHT R189A, 1%; in the assay with membrane LIGHT A190S, 97%; with membrane LIGHT T191A, 88%. Also, the “binding, % of WT” value with membrane LIGHT W197A was determined as 1%; with membrane LIGHT W198A it was 48%.

B6: 2E08 (antibody, human IgG4, V domains shown)
VH: QVQMKESGAELVRPGVSVKISCKGSGYTFTDYAIHWVKQSHAKTLEWIGVISTYYGDASYNQKFKGKATMTVDKSSSTAYMELARLTSDDSAIYYCARSRGEYGNYDAMDYWGQGTSVTVSS
VL: DIVLTQSPASLAVSLGQRATISCKASQSVDYDGDSYMNWYQQKPGQPPKLLIYAASNLESGIPARFSGSGSGTDFTLNIHPVEEEDAATYYCQQSNEDPLTFGAGTKLELK
notes: chimeric human IgG4 (S-to-P, L-to-E at 248), human CL; also called Parental 2E08
Take B6: the “binding, % of WT” value was 99% with membrane LIGHT V196A; 100% in assay [1]; 43% in the assay with membrane LIGHT R195A; 2% with membrane LIGHT R189A; 93% with membrane LIGHT A190S; 22% in the assay with membrane LIGHT T191A. The “binding, % of WT” value with membrane LIGHT W197A came out at 0%; with membrane LIGHT W198A it was 83%.

B7: 2B11 (antibody, human IgG4, V domains shown)
VH: EVQLVESGAELVRPGVSVKISCKGSGYTFTDYAIHWVKQSHAKSLEWIGVISTYYGDASYNQKFKGKATMTVDKSSSTAYMELARLTSEDSAIYYCARSRGEYGNYDAMDYWGQGTSVTVSS
VL: DIVLTQSPASLAVSLGQRATISCRASESVDSYGNSFMHWYQQKPGQPPKLLIYRASNLESGIPARFSGSGSRTDFTLTINPVEADDVATYYCQQSNEDPYTFGGGTKLEIK
notes: chimeric human IgG4 (S-to-P, L-to-E at 248), human CL; also called Parental 2B11
In the case of B7, the “binding, % of WT” value in the assay with membrane LIGHT V196A came to 73%; in assay [1], 100%; with membrane LIGHT R195A, 78%; with membrane LIGHT R189A, 0%; with membrane LIGHT A190S it was 52%; with membrane LIGHT T191A, 1%. The entries for the “binding, % of WT” value in the assay with membrane LIGHT W197A and with membrane LIGHT W198A were 0% and 77%, respectively.
